The nature of the data set: yeast display, Sf9 membrane polyspecificity reagent, FACS + sequencing; frameworks hold sequencing errors. In short, it runs like this:
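Nanobodies from a synthetic yeast display library (Saccharomyces cerevisiae BJ5465), induced 36–48 hours with galactose, were stained 1 hour at 4 °C with 10% biotinylated, detergent-solubilized Sf9 membrane reagent, enriched on streptavidin microbeads, then FACS-sorted. Anti-HA (expression) and streptavidin (reagent binding) fluorescence set low and high (top ~1%) gates. Polyreactivity labels come from the gate of origin. Genes were colony-PCR amplified, MiSeq 2 × 250 sequenced and filtered by CDR length.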
For “QVQLVESGGGLVQAGGSLRLSCAASGIIFEYYAMGWYRQAPGKERELVAAISKRGGSTYYADSVKGRFTISRDNAKNTVYLQMNSLKPEDTAVYYCNARRRYYSGPVYLHYRVNYWGQGTQVTVSS”, the “polyreactivity (PSR sort gate)” value was “high polyreactivity”.
Regarding “QVQLVESGGGLVQAGGSLRLSCAASGSTFFGNTMGWYRQAPGKERELVATITRRGGSTYYADSVKGRFTMSRDNAKNTVYLQMNSLKPEDTAVYYCANRGPYTKYDYWGQGTQVTVSS”, the “polyreactivity (PSR sort gate)” value is “low polyreactivity”.
For “QVQLVESGGGLVQAGGSLRLSCAASGSISWYYAMGWYRQAPGKERELVAAISDSGGDTYYADSVKGRFTISRDNAKNTVYLQMNSLKPEDTAVYYCATDTAYWLWVYALLEYWGQGTQVTVSS”, the “polyreactivity (PSR sort gate)” value is on record as “low polyreactivity”.
In the case of “QVQLVESGGGLVQAGGSLRISCAASGLTFYVYAMGWYRPAPGKERELVAAISGRGGRTYYADSVKGRFTISRDNAKNTVYLQMNSMKPEDTAVYYCAARYPRYRYVEYGYNYWGQGTQVTLSS” it was “high polyreactivity”.
In the case of “QDQLVESGGGLVQAGGSLRLSCAASGSIFYAYTMGWYRQAPGKEMELVASITKSGGSTYYADSVKGRFTISRDNAKNTVYLQMNSLKPEDTAVYYCAAVVGRNRTRSYGYWGQGTQVTVSS” it was “high polyreactivity”; in that of “QDQIVDSGGGLVQAGVSLRLSCAASGFTFGINTLGWYRQAPGKERELVAGISRTSSTYADSVKGRFTISRDNAKNTVYLQMNSLNAEDTAVYYCAAEYFQTRFGSWRKRYVSWGQGTQVTVSS”, “high polyreactivity”.
In the case of “QVQLVESGGGLVQAGGSLRLSCAASGFIVRNYAMGWYSQAPGKERELVASISRGTSTNYADSVKGRFTISRDNAKNTVYLQMNSLKPEDTAVYYCNKRFYYHPFDYWGQGTQVTVSS” it was “high polyreactivity”; in that of “QVQLVESGGGLVKAGGSLRLSCAASGRTFRDNAMGWYIQAPGKERELVADIDIDSSTYYADSVKGRFTISRDNAKNTVYLQMNSLKPEDTAVYYCAATFTYLGYWYDYWGQCTQVTVSS”, “low polyreactivity”; in that of “QVQLVESGGGLVQAGGSLRLSCAASGHIFFYYTMGWYRPAPGKERELVAGITIGGSTNYADSVKGRFTISRDNAKNTVYLQMNSLKPEDTAVYYCNVVKYVYIYSYWEYYYWGQGTQVTVSS”, “low polyreactivity”.
As to “QVQLVESGGDLVQAGGSLRLSCAASGSIFYINAMGWYRQAPGKERELVASISYSGTSTYYADSVKGRFTISRDNAKNTVYLQMNSLKPEDTAVYYCNSEDTPGAGDGYWGQGTQVTVSS”, the “polyreactivity (PSR sort gate)” value is given as “low polyreactivity”.
To “QVQLEESGGGLVQAGGSLRLSCAASGRTFDVYAMGWYRQAPGKEREFVAAINWSSSSTYYADSVKGRFTISRDNAKNTVYLQMNSLKPEDTAVYYCAARYKRYTRFDYWGQGTQVTVSS” belongs “high polyreactivity”; to “QVQLVESGGGLVQAGGSLRLSCAASGLTFGAYAMGWYRQAPGKEREFVAAITYSGGSTNYADSVKGRFTISRDNAKNTVYLQMNSLKPEDTAVYYCNAGYYSPWAFYPYDYWGQGTQVTVSS”, “high polyreactivity”.
In the case of “QVQLQESGGGLVQAGGSLRLSCAASGTIFWLWAMGWYCPAPGKERELVASISSGGTTYHADSVKGRFTISRDNAKNTVYLQMNSLKPEDTAVYYSAAFYVATAKLGYWGQGSQVTVSS” it was “low polyreactivity”.
To “QVQLVESGGGLVQAGGSLRLSCAASGSLFYPYAMGWYRQAPGKERELVAAIDLSGGSTYYADAVKGRFTISRDNAKNTVYLQMNSLKPEDTAVYYCAADYGYTYAYDYWGQGTQVTVSS” belongs “low polyreactivity”; to “QVQLVESGGGLVQAGGSLRISCAASGSIFRVYAMGWYRPAPGKERELVASITLSGGSTYYADSVKGRVTISRDNAKNTVYLQMNSLKPDDTAVYSCAARKRYRNPNTSRGMDYWGQGTQVNVSS”, “high polyreactivity”.
For the sequence “QVQLVESGGGLVQAGGSLRLSCAASGSIFPGYAMGWYRQAPGKERELVATITYSDGSTYYADSVKGRFTISRDNAKNTVYLQMNSLKPEDTAVYYCAVTYWWYYGYDYWGQGTQVTVSS”, the “polyreactivity (PSR sort gate)” value is listed as “low polyreactivity”.
Turning to “QVQLVESGGGLVQAGGSLRLSCAASGSIFGDYVMGWYRQAPGNERELVAAINRGGSTYYADSVKGRFSISRDNAKNTVYLQMNSLTAEDTAVYFCAAGYPSWYYCYPYDSWGQGTQVTVSS”, the “polyreactivity (PSR sort gate)” value was “low polyreactivity”.
To “QVQLVESGGGLVQAGGSLRLSCAASGNIFVLNPMGWYRQATCKETELVAAISRSGVRTYYADSVKGRFTISRDNAKNTVYLQMNSLKPEDTAVYYCAAVYKRLQPYGYWGQGTQETVSS” belongs “high polyreactivity”.
With “QVQLVESGGGLVQAGGSLRLSCAASGRTFRIYSMGWYRQAPGKEREFVAGITRSDGSTYYADSVKGRFTISRDNAKNTVYLQMNSLKPEDTAVYYCNVEPYSHYRRTEDYWGQGTQVTVSS”, the “polyreactivity (PSR sort gate)” value is on record as “high polyreactivity”.
To “QVQHVESVGGLVQAGGSLRLSCAASGRTFGCYTMGWYRHATGTERELVAGISSSGGSTYYADSVKGRFTISRDNAKNTVYLQMNSLKPEDTAVYYCARETYPHGLYYRPYDYWGQGTQVTVSS” belongs “low polyreactivity”; to “QVQLVESGGGLVQAGGSLRLSCAASGFTFLSNAMGWYRQAPGKERELVATINSGGSTNYADSVKGRFTISRDNAKNTVYLQMNSLKPEDTAVYYCAAKLWRYYHYDYWGQGTQVTVSS”, “low polyreactivity”.
In the case of “QVQLVESGGGLVQAGGSLRLSCAASGRILYLYTMGWYRQAPGKERELVAAISRGGSTYYADSVKGRFTISRDNAKNTVYLQMNSLKPEDTAVYYCSADARGYQFNYWGQGTLVTVSS” it was “high polyreactivity”; in that of “QVQLVESGGGLVQAGGSLRLSCAASGRIFNNYAMGWYRPAPGKERELVAAISTSGGSTYYADSVKGRFTISRDNAKNTVYLQMNSLKPEDTAVYYCNAVSRKRHYAPSYDYWGQGTQVTVSS”, “high polyreactivity”.
For “QVQLVESGGGLVQAGGSLRLSCAASGLIFDINAMGWYRQAPGKERDLVAAISFSDGITYYADSVKGRFTISRDNAKNTVYLHMNSLKPEDTAVYYCAVDYRIYRSGPMDYWGQGTQVTVSS”, the “polyreactivity (PSR sort gate)” value is given as “high polyreactivity”.
To “QVQLVESGVGLVQAGGSLRLSCAASGRTFFNYVMGWYRPAPGKERELVAAISRSGGSTYYADSVKGRFTLSRDNAKNTVYLQMNSLKPEDTAVYYCAADKYYEYYWGQATQVTVSS” belongs “high polyreactivity”.
In the case of “QVQLVESGGGLVQAGGSLRLSFAASGFIIGRNAMGWYRQAPGKEREMVAAITSGGNTYYADSVKGRFTISRDNAKNTVYLQMNSLKPEDTAVYYCAARRRYPLVDAGYYWGQGTQVTVSS” it was “high polyreactivity”; in that of “QVQLVESGGGLVQAGASLRLSCAASGSISKSYAMGWYRQAPGKERELVAAMSWRGGSTYADSVKGRFTISRDNAKNTVYLLMNCLKPEDSAVYYCAATNYGTFWGGQSERYDYWGQGTQVTVSS”, “low polyreactivity”.
In the case of “QVQLVESGGGLVQAGGSLRLSCAASGRTFATYSMGRYIQAPGKERELVAAISRSGSTTYYADSVKGRFTISRDNAKNTVYLQMNSLKPEDTAVYYCNAKFRKADYDYWGQGTQVTVSS” it was “high polyreactivity”; in that of “QVQLVESGGGLVQAGGSLRLSCAASGSIFQHYAMGWYRQAPGKEREFVAAISGRGGGTYYADSVKGRFTISRDNAKNTVYLQMNSLKPEDTAVYYCAADYRGSYWRYYYWGQGTQVTVSS”, “high polyreactivity”; in that of “QGQLVESGGGLGQEGGSLRLICAASGNTFDYYVMGWYRQAPGKERELVAVITSGSSTYYADSVKGRFTISRDNAKNTVFFQMNSLQPEDTAVYYCAKTTRRPGLRSYDYWGQGTQVTVSS”, “high polyreactivity”.
With “QVQLVESGGGLVQAGGSLRLSCAGYGSIFWWYPMVWYRQAPGKERELVASISWSGTSTYYADSVKGRFTISRDNAKNTVYLQMNSLKPEDTAVYYCNADVYWPGTPYTHDYWGQGTQVTVSS”, the “polyreactivity (PSR sort gate)” value is reported as “low polyreactivity”.
As for “QVQLVESGGRLVQAGGSLRLSCAASGSTFAANAMGRYRQDPGKDRELVAGITSSGGSTYYADSVKGRFTISRDNAKNTDYLQLTSLKPEDNAVYYCNKDNARYVRMYDSWGQGTQVTVSS”, the “polyreactivity (PSR sort gate)” value is recorded as “low polyreactivity”.
To “QVQLVESGGGLVQAGGSLRLSCAASGFTFKYYAMGWYRQAPGKERELVAAIRRSAGSTNYADSVKGRFTISRDNAKNTVYLQMNSLKPEDTAVYYCNTVGTRQPMDYWGQGTLVTVSS” belongs “high polyreactivity”.
In the case of “QVQHVESRGGLVQAGGSLRLICAASGFTFSSYAMGWYRQAPGKERELVASISWRGGIPYYADSVKGRFTISRDNAKNTVDLQMISLKPEDTAVYYCAAVPSYHSTSPFYYWGQGTQVTVSS” it was “high polyreactivity”; in that of “QVQLVESGGGLVQAGGSLRLSCAASGYIFYNAMGSYRQAPGKERELVAAISSSGGTTYADSVKGRFTISRDNAKNTVYLQMNSLKPEDTAVYYCAARSEFYWGWEYITYDYWGQGTQVTVSS”, “low polyreactivity”.
In the case of “QVQLVESGGGLVQAGGSLGLSCAASGSTLSAYVMGWYRQAPGKEREFVAAITWSGGNTYYADSVKGRFTISRDNAKHTVYLQMNSLKPEDTAVYFCARRGYRQSGDYWGQGTQVTVSS” it was “low polyreactivity”; in that of “QVQLVESGGGLVQAGGSLRLSSAASGFIFRTYAMGRYRQAHGKESQLVAAISGTTGSKYYADSVKGRFTISRDNAKNTVYLQMNSLKPEDTAVYYCAADFYWYIRYDYWGQGTQVTVSS”, “low polyreactivity”; in that of “QVQLVESGGGLVQAGGSLRLSCAASGFTISRYTMGWYRQAPGKERELVASITRRAGSTYYADSVKGRYTISRDNAQTTVYLQMYSLKPEDTAVYYCAAYGWTFSKVDLEMDYWGQGTQVTVSS”, “high polyreactivity”.
Turning to “QVQLVESGGGLVQAGGSLRLSCAASGNIFTGYMGWYRQAPGKERELVAAISRSGGRTHYADSVKGRFTISRDNAKNTVYLQMNSLKPEDTAVYYCNADVRRYTAFTKDAYAFNYWGQGTQVTVSS”, the “polyreactivity (PSR sort gate)” value is “high polyreactivity”.
“QVQLVESGGGLVQAGGSLRLSCAASGSIFDVNAMGWYRQAPGKQRELVAAISDSGGSTYYADSVKGRFTISRDNAKNTVYLQMNSLKPEDTAVYYCNADWSWYNYYDFDYWGQGTQVTVSS”: the “polyreactivity (PSR sort gate)” value is on record as “low polyreactivity”.
In the case of “QVQLVESGGGLVQAGGSLRLSCAASGFIFWSYAMGWYRQAPGKERELVAAIDLTGGSTYYADSVKGRFTISRDNAKNTVYLQMNSLKPEDTAVYYCNADGDTYAFTNSDSGFDYWGQGTQVSVSS”, the “polyreactivity (PSR sort gate)” value is listed as “low polyreactivity”.

Source of the values: the nanobody polyreactivity screen of Harvey et al. (2022).
